Results on nine molecules are retold here after patent publication US20200347130A1 (JIANGSU HENGRUI MEDICINE, published 2020).

To fix the notation:
T1: Biotinylated CD96 antigen (human, UniProt P40200-2 22-503, limits assumed, biotinylated)
T1 sequence (looked up): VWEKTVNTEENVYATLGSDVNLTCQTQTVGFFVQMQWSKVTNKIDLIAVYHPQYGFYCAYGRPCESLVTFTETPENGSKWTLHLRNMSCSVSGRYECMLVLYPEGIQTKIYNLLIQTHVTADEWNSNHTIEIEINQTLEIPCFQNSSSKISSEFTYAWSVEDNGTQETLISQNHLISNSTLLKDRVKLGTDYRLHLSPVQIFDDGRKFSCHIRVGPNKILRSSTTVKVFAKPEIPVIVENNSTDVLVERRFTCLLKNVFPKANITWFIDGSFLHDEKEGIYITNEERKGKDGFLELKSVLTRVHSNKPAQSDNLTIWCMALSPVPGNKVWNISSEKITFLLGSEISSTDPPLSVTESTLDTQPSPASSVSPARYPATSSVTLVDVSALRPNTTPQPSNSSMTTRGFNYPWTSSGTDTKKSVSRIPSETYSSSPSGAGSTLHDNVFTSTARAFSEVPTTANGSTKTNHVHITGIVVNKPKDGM

T2: CD96 epitope peptide #3 IAVYHPQYGFYCAYGRPCES (47-66) (human)
T2 construct: also called 3# peptides; #3 antigen fragment
T2 peptide: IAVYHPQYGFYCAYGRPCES

B1: h1721-003 (antibody, V domains shown)
VH: EVTLKESGPVLVKPTETLTLTCTVSGFSLSSYGVNWIRQPPGKALEWLGVIWGDGSTNYHSALISRLTISKDTSKSQVVLTLTNMDPVDTATYYCAKNYFYGSRYGYAMDSWGQGTTVTVSS
VL: DIQMTQSPSSLSASVGDRVTITCRASENIYSSLAWYQQKPGKAPKLLIYNAKTLIEGVPSRFSGSGSGTDFTLTISSLQPEDFATYYCQHHYGTPYTFGGGTKVEIK
notes: Only variable regions are tied to this name; also called M721-003
B2: h1722-010 (antibody, V domains shown)
VH: EVQLVQSGAEVKKPGSSVKVSCKASGGTFSDYWMHWVRQAPGQGLEWIGMLHPNSGTTSFNEKFKIRVTITADKSTSTAYMELSSLRSEDTAVYYCASDYSGPFAYWGQGTLVTVSS
VL: DIQLTQSPSSLSASVGDRVTITCSASSSVNYIHWYQQKPGKAPKRWIFDTSKLASGVPSRFSGSGSGTDYTLTISSLQPEDFATYYCQQWRSNPLTFGQGTKLEIK
notes: Only variable regions are tied to this name; also called M722-010
B3: h1719-014 (antibody, V domains shown)
VH: B1 VH with N35S, I37V, A44G, S56N, A62V, F100Y, A108P, M109L, S111Y
VL: DIQMTQSPSSVSASVGDRVTITCKATQDVGTAVAWYQQKPGKSPKLLIYWASTRHTGVPERFSGSGSGTDFTLTISSLQPEDFATYFCQQYGSSVLTFGGGTKVEIK
notes: Only variable regions are tied to this name; also called M719-014
B4: ch1720 (antibody, human IgG4 S228P, kappa, V domains shown)
VH: EFQLQQSGPELVKPGASVKISCKASAYSLTDYNMNWVKQSNGKSLEWIGVINPSYGISSYNQKFKGKATLTVDQSSSTAYMHLNSLTSEDSAVYYCARQLRLPGYFDVWGTGTTVTVSS
VL: DIKMTQSPSSKNASLGERVTITCKASQDINSYLNWFQQKPGKSPKTLIYRASRLVDGVPSRFSGSGSGQDYSLTISSLEYEDMGIYYCLKYDEFPYTFGGGTKLEIKR
notes: also called chimeric antibody corresponding to m1720
B5: h1718-012 (antibody, V domains shown)
VH: EVQLVQSGAEVKKPGASVKVSCKASGYTITDYNMNWVRQAPGQRLEWIGVINPSYGITDYNQNFKDRVTITVDTSASTAYMELSSLRSEDTAVYYCAIQLRLPGYFDVWGQGTTVTVSS
VL: DIQMTQSPSSLSASVGDRVTITCKASQDINQYLNWFQQKPGKAPKTLIYRANRLVDGVPSRFSGSGSGQDYTLTISSLQPEDFATYYCLKYDEFPYTFGGGTKVEIK
notes: Only variable regions are tied to this name
B6: ch1719 (antibody, human IgG4 S228P, kappa, V domains shown)
VH: QVQLKESGPGLVAPSQSLSITCTVSGFSLISYGVSWVRQPPGKGLEWLGVIWGDGNTNYHSVLISRLSIRKDDSKSQVFLKLNSLQTDDTATYYCAKNNYYGSRYGYPMDYWGQGTSVTVSS
VL: DIVMTQSHKFMSTSVGDRVSITCKATQDVGTAVAWYQQKPGHSPKLLIYWASTRHTGVPERFTGSGSGTDFTLTIDNVQSEDLADYFCQQYGSSVLTFGAGTKVELRR
notes: also called chimeric antibody corresponding to m1719
B7: ch1721 (antibody, human IgG4 S228P, kappa, V domains shown)
VH: B6 VH with S35N, N56S, V62A, R70S, K81N, N99Y, Y100F, P108A, Y111S, T116I
VL: DIQMTQSPASLSAAVGETVTITCRASENIYSSLAWYQQKQGKSPQLLVYNAKTLIETVASRFSGSGSGTQYSLKINSLQPEDFGSFYCQHHYGTPYTFGGGTKLEIKR
notes: also called chimeric antibody corresponding to m1721
B8: ch1718 (antibody, human IgG4 S228P, kappa, V domains shown)
VH: B4 VH with L29I, S58T, S59D, K63N, G66D, H82Q, R98I, T116I
VL: B4 VL with K11M, N12Y, S31N, S52N, L104V
notes: also called chimeric antibody corresponding to m1718
B9: h1719-010 (antibody, V domains shown)
VH: EVTLKESGPVLVKPTETLTLTCTVSGFSLSSYGVSWVRQPPGKGLEWLGVIWGDGNTNYHSVLISRLTISKDTSKSQVVLTLTNMDPVDTATYYCAKQNYYGSRYGYPIDYWGQGTTVTVSS
VL: B3 VL with S43A, E60S, F87Y
notes: as for B5

Changes are numbered by the printed parent chain.

The target in the first test is T1, Biotinylated CD96 antigen. The test is described as follows: competition ELISA, antibody B premixed with biotinylated CD96; competitor (coated antibody A): h1718-012. On the procedure: (§1) Competitive assays of different antibodies binding to CD96 protein were used to classify binding epitopes of the antibodies. The specific experimental methods are as follows:
(§2) Antibody A was diluted to a concentration of 2 μg/ml with PBS buffer (Shanghai Yuanpei Biotechnology Co., Ltd. Cat No. B320), pH 7.4, added to a 96-well microtiter plate (Corning, Cat No. CLS3590-100EA) at a volume of 50 μl/well, and coated at 4° C. overnight. After discarding the liquid, 250 μl/well of 5% skim milk (BD skim milk, Cat No. 232100) blocking solution diluted with PBS was added, and the plate was incubated at 37° C. for 3 hours. After blocking, the blocking solution was discarded, and the plate was washed 5 times with PBST buffer (pH 7.4 PBS containing 0.05% tween-20) and stored for later use. Antibody B was diluted to 40 μg/ml and 8 μg/ml with 1% BSA, and Biotinylated CD96 antigen was simultaneously diluted to 4 μg/mL. Subsequently, antibody B and antigen were mixed in a 1:1 volume ratio, pre-incubated at 37° C. for 45 minutes, added into the enzyme plate coated with antibody A, thus incubating the plate in an incubator at 37° C. for 1.5 hours. After incubation, the plate was washed for 5 times with PBST, and 50 μl/well of HRP-labeled streptavidin (Sigma, Cat No. 52438) diluted with sample dilution was added, followed by incubating the plate at 37° C. for 1 hour. After washing the plate 5 times with PBST, 50 μl/well of TMB chromogenic substrate (KPL, Cat No. 52-00-03) was added for color development, followed by adding 50 μl/well of 1M H₂SO₄ to stop the reaction. The absorption value was read at 450 nm with a NOVOStar microplate reader, and the OD value was used to determine whether A and B CD96 antibodies compete with each other. Antibodies that compete with each other fall into the same class of antibodies, otherwise belong to different classes of antibodies (see FIG. 3 and Table 18).
Regarding B1, the “competition (percent)” value was 73.6%.
The same measure, in the same setting: then B2, with -3.5%.
As for B3, the “competition (percent)” value is 44.3%.
B4: the “competition (percent)” value came to 94.4%.
The same measure, in the same setting: next, B5: 100%.

The target of the next test is T1, Biotinylated CD96 antigen. The test is described as follows: competition ELISA, antibody B premixed with biotinylated CD96; competitor (coated antibody A): h1719-014. On the procedure:
as §1, §2
(In general: In an ELISA, binding on a coated surface is turned into a signal by an enzyme label.)
In the case of B1, the “competition (percent)” value is 96%.
On the same count and under the same terms, then B2, with 8.5%.
For the molecule B3, the “competition (percent)” value stood at 100%.
Same read-out and setting: next, B4: 92.3%.
Consider B5, for which the “competition (percent)” value came out at 94.8%.

The next test has as its target T1, Biotinylated CD96 antigen. Put plainly: competition ELISA, antibody B premixed with biotinylated CD96; competitor (coated antibody A): h1722-010. As for the experimental part:
as §1, §2
For B1, the “competition (percent)” value was -0.3%.
Same read-out and setting: next, B2: 100%.
For B3, the “competition (percent)” value came to 28.6%.
Still for that read-out and setting: then B4, with -2.4%; and B5, with -11.1%.

The next test addresses T2, CD96 epitope peptide #3 …. The test is described as follows: FACS on CD96-CHOs cells after pre-incubation of the antibody with the peptide; a fall of the MFI against antibody alone shows that the peptide occupies the antibody. As for the experimental part: In order to verify that the binding of the antibody to CD96 protein polypeptide fragment is specific, we designed the following FACS for verification. While polypeptide fragments were incubated and bound to an antibody, epitopes of the antibody binding to CD96 protein were occupied, and then the signal of the antibody binding to CD96 protein on the cell surface decreased. The specific experimental methods are as follows:
The antibody samples were diluted to 1.2 μg/mL with 1% BSA, and the peptides were diluted to 40 μg/mL synchronously. The peptides and antibody sample were mixed at a volume ratio of 1:1 and pre-incubated at 37° C. for 90 minutes. CD96-CHOs cells were collected and washed once in PBS, then dispensed according to 0.5×10⁶/test. The cells with 100 μL of peptide-antibody mixture were resuspended, incubated at 4° C. for 1 hour, followed by washing 3 times with 1% BSA. Cells were resuspended with 100 μL dilution (1:400, 1:40, 1:100) of Alexa Fluor 488 anti-human IgG Fc (thermofisher, A-11013), PE goat anti-mouse IgG (Biolegend, Cat No. 405307), or PE goat anti-Rat IgG (Biolegend, Cat No. 405406), incubated at 4° C. for 40 minutes, followed by washing 3 times with 1% BSA. The cells were resuspended with 200 μL of 1% BSA, MFI of each sample was read on a flow cytometer BD FACSCanto II, and the data were analyzed with GraphPad Prism 5 to make a histogram. MFI difference between the sample without polypeptides incubation and the one incubated with polypeptides was used to determine the antigenic epitope recognized by the CD96 antibody.
For B6, the binding result was “binds”.
Turning to B7, the binding result was “binds”.
The same measure, in the same setting: next, B8: “binds”.

The next test deals with T1, Biotinylated CD96 antigen. Put plainly: competition ELISA: antibody B pre-incubated with biotinylated CD96 antigen, added to a plate coated with antibody A, HRP-streptavidin, OD450; competitor: coated h1719-014 (named by the legend paragraph 84). As for the experimental part: as §1, §2
With B1, the “IC50 (read off the curve)” value is about 0.4 nM.
On the same count and under the same terms, then B9, with about 0.4 nM; and B4, with about 1 nM; and B5, with about 0.4 nM.
